Experimental data published in patent publication US20260209350A1 (Alector, published 2026).
Where two headings read alike, the source gives them in different places.

T1: mouse TREM2 on cells (mouse, UniProt Q99NH8 19-227)
T1 construct: whole, on cells; Used for the recombinant protein on BWZ/BW cells (with mouse DAP12) and for the native protein on mouse macrophages and dendritic cells; the cell type stands under assay; also called mTREM2; mTrem2
T1 sequence (looked up): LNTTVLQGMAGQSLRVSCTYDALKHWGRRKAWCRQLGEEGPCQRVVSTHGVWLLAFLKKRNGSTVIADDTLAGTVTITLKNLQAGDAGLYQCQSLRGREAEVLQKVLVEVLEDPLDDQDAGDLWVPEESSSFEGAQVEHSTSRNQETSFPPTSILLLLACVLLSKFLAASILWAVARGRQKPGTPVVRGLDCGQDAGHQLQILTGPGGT

T2: human TREM2 Fc fusion protein (human, UniProt Q9NZC2 19-174)
T2 construct: also called hTREM2-Fc; not shown: Fc part not specified
T2 sequence: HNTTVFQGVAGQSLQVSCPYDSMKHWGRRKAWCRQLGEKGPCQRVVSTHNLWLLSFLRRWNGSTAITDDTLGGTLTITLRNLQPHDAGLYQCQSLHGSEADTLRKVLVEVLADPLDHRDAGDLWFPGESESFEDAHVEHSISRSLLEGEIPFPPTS

T3: mouse TREM2 Fc fusion protein (mouse, UniProt Q99NH8 19-171)
T3 construct: also called mTREM2-Fc; not shown: Fc part not specified
T3 sequence (looked up): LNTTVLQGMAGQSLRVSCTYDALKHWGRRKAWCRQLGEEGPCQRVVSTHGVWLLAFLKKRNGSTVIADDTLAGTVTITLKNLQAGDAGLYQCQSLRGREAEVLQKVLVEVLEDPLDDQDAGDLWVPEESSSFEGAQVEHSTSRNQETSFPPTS

T4: human monomeric His tagged TREM2 protein (human, UniProt Q9NZC2 19-174)
T4 construct: also called hTREM2-HIS
T4 sequence: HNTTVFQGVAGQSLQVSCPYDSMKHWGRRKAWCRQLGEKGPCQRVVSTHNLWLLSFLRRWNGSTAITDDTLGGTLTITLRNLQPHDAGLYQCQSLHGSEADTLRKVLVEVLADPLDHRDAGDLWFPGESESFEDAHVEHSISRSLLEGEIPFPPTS

T5: human TREM2 on primary human cells (human, UniProt Q9NZC2 19-230)
T5 sequence: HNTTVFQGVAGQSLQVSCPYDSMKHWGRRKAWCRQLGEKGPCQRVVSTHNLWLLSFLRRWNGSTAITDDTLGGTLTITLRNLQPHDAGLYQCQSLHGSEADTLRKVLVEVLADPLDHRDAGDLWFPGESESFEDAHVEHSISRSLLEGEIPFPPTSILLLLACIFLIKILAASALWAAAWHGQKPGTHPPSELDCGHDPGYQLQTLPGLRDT


Experiments:
mouse TREM2 on cells [1] = target: T1, mouse TREM2 on cells; assay: FACS, mTrem2 cells
[2] = target: T2, human TREM2 Fc fusion protein; assay: ForteBio or MSD-SET, avid
[3] = target: T3, mouse TREM2 Fc fusion protein; assay: ForteBio or MSD-SET, avid
[4] = target: T4, human monomeric His tagged TREM2 protein; assay: ForteBio or MSD-SET, monovalent
mouse TREM2 on cells [5] = target: T1, mouse TREM2 on cells; assay: FACS, BWZ T2 cells
[6] = target: T5, human TREM2 on primary human cells; assay: cell-based or functional assay
[7] = target: T2, human TREM2 Fc fusion protein; assay: ForteBio or MSD-SET, avid; remark: listed apart in the source
Protocol: (§1) The binding affinity of each anti-TREM2 antibody was determined by measuring their KD by ForteBio or MSD-SET. […] Briefly, ForteBio affinity measurements were performed by loading IgGs on-line onto AHQ sensors. Sensors were equilibrated off-line in assay buffer for 30 min and then monitored on-line for 60 seconds for baseline establishment. Sensors with loaded IgGs were exposed to 100 nM antigen for 5 minutes, then transferred to assay buffer for 5 min for off-rate measurement. Kinetics were analyzed using the 1:1 binding model.
(§2) Solution equilibrium titrations (SET) were performed in PBS+0.1% IgG-Free BSA (PBSF) with antigen held constant at 50 pM and incubated with 3- to 5-fold serial dilutions of antibody starting at 10 nM. Antibodies (20 nM in PBS) were coated onto standard bind MSD-ECL plates overnight at 4° C. or at room temperature for 30 min. Plates were then blocked for 30 min with shaking at 700 rpm, followed by three washes with wash buffer (PBSF+0.05% Tween 20). SET samples were applied and incubated on the plates for 150s with shaking at 700 rpm followed by one wash. Antigen captured on a plate was detected with 250 ng/mL sulfotag-labeled streptavidin in PBSF by incubation on the plate for 3 min. The plates were washed three times with wash buffer and then read on the MSD Sector Imager 2400 instrument using 1×Read Buffer T with surfactant. The percent free antigen was plotted as a function of titrated antibody in Prism and fit to a quadratic equation to extract the KD. To improve throughput, liquid handling robots were used throughout MSD-SET experiments, including SET sample preparation.

[8] = target: T3, mouse TREM2 Fc fusion protein; assay: ForteBio or MSD-SET, avid; remark: listed apart in the source
Protocol: as §1, §2

mouse TREM2 on cells [9] = target: T1, mouse TREM2 on cells; assay: FACS, WT mouse macrophages
Protocol: (§3) Cells were harvested, plated at 10⁵/ml in a 96 well plate, washed, and incubated in 100 ul PBS containing 10-50 ug/ml Mab and Fc blocking reagent for 1 hour in ice. Cells were then washed twice and incubated in 100 ul PBS containing 5 ug/ml PE-conjugated secondary antibody for 30 minutes in ice. Cells were washed twice in cold PBS and acquired on a BD FACS Canto. Data analysis and calculation of MFI values was performed with FlowJo (TreeStar) software version 10.0.7.

mouse TREM2 on cells [10] = target: T1, mouse TREM2 on cells; assay: FACS, WT mouse dendritic cells
Protocol: as §3

[11] = target: T4, human monomeric His tagged TREM2 protein; assay: ForteBio or MSD-SET, monovalent; remark: listed apart in the source
Protocol: as §1, §2

[12] = target: T5, human TREM2 on primary human cells; assay: FACS, primary human dendritic cells
[13] = target: T2, human TREM2 Fc fusion protein; assay: ForteBio or MSD-SET, avid; remark: listed apart in the source
Protocol: as §1
(§4) Solution equilibrium titrations (SET) were performed in PBS+0.1% IgG-Free BSA (PBSF) with antigen held constant at 50 pM and incubated with 3- to 5-fold serial dilutions of antibody starting at 10 nM. Antibodies (20 nM in PBS) were coated onto standard bind MSD-ECL plates overnight at 4° C. or at room temperature for 30 min. Plates were then blocked for 30 min with shaking at 700 rpm, followed by three washes with wash buffer (PBSF+0.05% Tween 20). SET samples were applied and incubated on the plates for 150s with shaking at 700 rpm followed by one wash. Antigen captured on a plate was detected with 250 ng/mL sulfotag-labeled streptavidin in PBSF by incubation on the plate for 3 min. The plates were washed three times with wash buffer and then read on the MSD Sector Imager 2400 instrument using 1× Read Buffer T with surfactant. The percent free antigen was plotted as a function of titrated antibody in Prism and fit to a quadratic equation to extract the KD. To improve throughput, liquid handling robots were used throughout MSD-SET experiments, including SET sample preparation.

[14] = target: T3, mouse TREM2 Fc fusion protein; assay: ForteBio or MSD-SET, avid; remark: listed apart in the source
Protocol: as §1, §4

[15] = target: T4, human monomeric His tagged TREM2 protein; assay: ForteBio or MSD-SET, monovalent; remark: listed apart in the source
Protocol: as §1
Solution equilibrium titrations (SET) were performed in PBS+0.1% IgG-Free BSA (PBSF) with antigen held constant at 50 pM and incubated with 3- to 5-fold serial dilutions of antibody starting at 10 nM. Antibodies (20 nM in PBS) were coated onto standard bind MSD-ECL plates overnight at 4° C. or at room temperature for 30 min. Plates were then blocked for 30 min with shaking at 700 rpm, followed by three washes with wash buffer (PBSF+0.05% Tween 20). SET samples were applied and incubated on the plates for 150s with shaking at 700 rpm followed by one wash. Antigen captured on a plate was detected with 250 ng/mL sulfotag-labeled streptavidin in PBSF by incubation on the plate for 3 min. The plates were washed three times with wash buffer and then read on the MSD Sector Imager 2400 instrument using 1× Read Buffer T with surfactant. […]

Binder	MFI (mouse TREM2 on cells [1]) [MFI]	Kd [2] [nM]	binding result [3]	Kd [4] [nM]	MFI (mouse TREM2 on cells [5]) [MFI]	Induction of CD86 & CD83 Human hDC plate (% CD83+CD86+ cells) [6] [%]	Induction of CD86 & CD83 hDC solution (% CD83+CD86+ cells) [6] [%]	Kd [7] [nM]	Kd [8] [nM]	MFI (mouse TREM2 on cells [9]) [MFI]	MFI (mouse TREM2 on cells [10]) [MFI]	Kd [11] [nM]	hDC % positive [12] [%]	Kd [13] [nM]	Kd [14] [nM]	Kd [3] [nM]	Kd [15] [nM]
Ab1 (antibody, human IgG1, V domains shown, human IgG1) VH: not shown VL: EIVMTQSPATLSVSPGERATLSCRASQSVSSNLAWYQQKPGQAPRLLIYGASTRATGIPARFSGSGSGTEFTLTISSLQSEDFAVYYCQQLPYWPPTFGGGTKVEIK	–	–	–	–	12600	87.2	3	0.705	4.86	82.3	393	6.67	64.9	–	–	–	–
Ab14 (antibody, human IgG1, V domains shown, human IgG1) VH: QVQLQESGPGLVKPSQTLSLTCTVSGGSISSGGYYWSWIRQHPGKGLEWIGNIYYSGSTVYNPSLKSRVTISVDTSKNQFSLKLSSVTAADTAVYYCARGLYGYGVLDVWGQGTMVTVSS VL: not shown	–	–	–	–	11600	78.7	1.9	0.551	0.62	145	529	3.19	75.8	–	–	–	–
Ab21 (antibody, human IgG1, V domains shown, human IgG1; also called antibody 21) VH: EVQLVQSGAEVKKPGESLKISCKGSGYSFTTYWIGWVRQMPGKGLEWMGIIYPGDSDTRYSPSFQGQVTISADKSISTAYLQWSSLKASDTAMYYCARAGHYDGGHLGMDVWGQGTTVTVSS VL: EIVMTQSPGTLSLSPGERATLSCRASQSVSSSYLAWYQQKPGQAPRLLIYGASNRATGIPDRFSGSGSGTDFTLTISRLEPEDFAVYYCQQDDSAPYTFGGGTKVEIK	–	–	–	–	–	–	–	–	–	–	–	–	–	0.344	0.227	–	1.14
Ab22 (antibody, human IgG1, V domains shown, human IgG1) VH: EVQLVQSGAEVKKPGESLKISCKGSGYSFTTYWIGWVRQMPGKGLEWMGIIYPGDSDTRYSPSFQGQVTISADKSISTAYLQWSSLKASDTAMYYCARAGHYDGGHLGMDVWGQGTTVTVSS VL: EIVMTQSPGTLSLSPGERATLSCRASQSVSSSYLAWYQQKPGQAPRLLIYGASSRATGIPDRFSGSGSGTDFTLTISRLEPEDFAVYYCQQDDRSPYTFGGGTKVEIK	–	–	–	–	12500	74.5	1.2	0.306	0.34	110	451	1.01	76.9	–	–	–	–
Ab9 (antibody, human IgG1, V domains shown, human IgG1) VH: EVQLVQSGAEVKKPGESLKISCKGSGYSFTSYWIGWVRQMPGKGLEWMGIIYPGDSDTTYSPSFQGQVTISADKSISTAYLQWSSLKASDTAMYYCARLHISGEVNWFDPWGQGTLVTVSS VL: EIVLTQSPATLSLSPGERATLSCRASQSVSSYLAWYQQKPGQAPRLLIYDASNRATGIPARFSGSGSGTDFTLTISSLEPEDFAVYYCQQFSYWPWTFGGGTKVEIK	–	–	–	–	15700	79.3	5.6	0.348	–	171	538	6.32	65.8	–	–	–	–
Ab78 (antibody, human IgG1, V domains shown, human IgG1) VH: QVQLVESGGGVVQPGRSLRLSCAASGFTFSSYGMHWVRQAPGKGLEWVAVIWYDGSNKYYADSVKGRFTISRDNSKNTLYLQMNSLRAEDTAVYYCARTPYPWIYFDLWGRGTLVTVSS VL: EIVLTQSPATLSLSPGERATLSCRASQSVSSYLAWYQQKPGQAPRLLIYDASNRATGIPARFSGSGSGTDFTLTISSLEPEDFAVYYCQQADNWPFTFGGGTKVEIK	433	0.851	no binding	37.3	–	–	–	–	–	–	–	–	–	–	–	–	–
Ab7 (antibody, human IgG1, V domains shown, human IgG1) VH: QVQLVQSGAEVKKPGASVKVSCKASGYTFTSYYMHWVRQAPGQGLEWMGIINPSGGSTTYAQKFQGRVTMTRDTSTSTVYMELSSLRSEDTAVYYCARTSSKERDYWGQGTLVTVSS VL: EIVLTQSPATLSLSPGERATLSCRASQSVSSYLAWYQQKPGQAPRLLIYDASKRATGIPARFSGSGSGTDFTLTISSLEPEDFAVYYCQQRISYPITFGGGTKVEIK	10900	1.05	–	33.4	–	–	–	–	–	–	–	–	–	–	–	1.11	–

Second part, the binder after the results:

MFI (mouse TREM2 on cells [1]) [MFI]	Kd [2] [nM]	binding result [3]	Kd [4] [nM]	MFI (mouse TREM2 on cells [5]) [MFI]	Induction of CD86 & CD83 Human hDC plate (% CD83+CD86+ cells) [6] [%]	Induction of CD86 & CD83 hDC solution (% CD83+CD86+ cells) [6] [%]	Kd [7] [nM]	Kd [8] [nM]	MFI (mouse TREM2 on cells [9]) [MFI]	MFI (mouse TREM2 on cells [10]) [MFI]	Kd [11] [nM]	hDC % positive [12] [%]	Kd [13] [nM]	Kd [14] [nM]	Kd [3] [nM]	Kd [15] [nM]	Binder
523	0.723	no binding	15	–	–	–	–	–	–	–	–	–	–	–	–	–	Ab8 (antibody, human IgG1, V domains shown, human IgG1) VH: QLQLQESGPGLVKPSETLSLTCTVSGGSISSSSYYWGWIRQPPGKGLEWIGSISYSGSTYYNPSLKSRVTISVDTSKNQFSLKLSSVTAADTAVYYCARGPYRLLLGMDVWGQGTTVTVSS VL: DIQMTQSPSSLSASVGDRVTITCRASQSISSYLNWYQQKPGKAPKLLIYGASSLQSGVPSRFSGSGSGTDFTLTISSLQPEDFATYYCQQIDDTPITFGGGTKVEIK
15600	1.51	–	5.75	–	–	–	–	–	–	–	–	–	1.51	0.0896	0.0896	5.75	Ab52 (antibody, human IgG1, V domains shown, human IgG1; also called antibody 52) VH: QVQLVQSGAEVKKPGASVKVSCKASGYTFTSYYIHWVRQAPGQGLEWMGIINPSGGSTSYAQKFQGRVTMTRDTSTSTVYMELSSLRSEDTAVYYCAREADDSSGYPLGLDVWGQGTMVTVSS VL: EIVMTQSPATLSVSPGERATLSCRASQSVSSNLAWYQQKPGQAPRLLIYGASTRATGIPARFSGSGSGTEFTLTISSLQSEDFAVYYCQQVNSLPPTFGGGTKVEIK
1430	0.592	no binding	24.1	–	–	–	–	–	–	–	–	–	–	–	–	–	Ab2 (antibody, human IgG1, V domains shown, human IgG1) VH: not shown VL: EIVLTQSPATLSVSPGERATLSCRASQSVGSNLAWYQQKPGQAPRLLIYGASTRATGIPARFSGSGSGTEFTLTISSLQSEDFAVYYCQQYFFYPPTFGGGTKVEIK
–	–	–	–	16100	74	1.7	0.546	1.56	165	642	5.01	76.9	–	–	–	–	Ab65 (antibody, human IgG1, V domains shown, human IgG1) VH: EVQLVQSGAEVKKPGESLKISCKGSGYSFTSYWIGWVRQMPGKGLEWMGIIYPGDSDTRYSPSFQGQVTISADKSISTAYLQWSSLKASDTAMYYCARLGRKPSGSVAFDIWGQGTMVTVSS VL: EIVLTQSPATLSLSPGERATLSCRASQSVSSYLAWYQQKPGQAPRLLIYDASNRATGIPARFSGSGSGTDFTLTISSLEPEDFAVYYCQQDYSWPYTFGGGTKVEIK
–	–	–	–	16300	65.5	4.3	0.229	–	141	652	0.654	78.8	–	–	–	–	Ab45 (antibody, human IgG1, V domains shown, human IgG1) VH: QVQLVQSGAEVKKPGASVKVSCKASGYTFTSYYMHWVRQAPGQGLEWMGIINPSGGSTSYAQKFQGRVTMTRDTSTSTVYMELSSLRSEDTAVYYCARGPGYTTALDYYYMDVWGKGTTVTVSS VL: EIVMTQSPATLSVSPGERATLSCRASQSVSSNLAWYQQKPGQAPRLLIYGASTRATGIPARFSGSGSGTEFTLTISSLQSEDFAVYYCQQLDDWFTFGGGTKVEIK
